These results are taken from article PMC11258689, “A Snake Venom Peptide and Its Derivatives Prevent Aβ42 Aggregation and Eliminate Toxic Aβ42 Aggregates In Vitro” (ACS Chemical Neuroscience, 2024).

The target in the assay is amyloid-β (1–42) (UniProt P05067).

Non-standard residues stand in square brackets, D forms with d. No end group written: not given here.

B1: CDP-1D, D-enantiomeric form of CDP-1 (peptide)
peptide: Ac-[dK][dK][dC][dC][dK][dW][dR][dW][dR][dC][dD][dM][dK]
modifications: not fully specified (C-terminus); cysteine pairing not given here; also: methylated at the C-terminus
In the case of B1, the ThT fluorescence of Aβ42 aggregation (10 μM Aβ42, 28 μM peptide, 24 h); inhibition of the self-aggregation of Aβ42 was 100%.
